Patent US20240408167A1, “COMPOSITION FOR TREATING OCULAR DISEASES CONTAINING PEPTIDE” (Encuragen Inc., priority 2023, published 2024)
Several values for one entry are separate records, joined by “and”; a condition that tells them apart may be missing. Equal entries are not always repeated.

Assays:
[1] = test system: BALB/3T3 clone A31 cells; test: cells; type: cell-based
Procedure: To evaluate the phototoxicity of (PEG)-BHD1028, the potential phototoxicity of (PEG)-BHD1028 was measured in the BALB/3T3 clone A31 cells after UV exposure. The test substance and the positive control group (chlorpromazine hydrochloride; CPZ) were dissolved in a Hank's Balanced Salt Solution (HBSS) and then diluted with a Hank's Balanced Salt Solution (HBSS). The cells were trypsinized and counted. Thereafter, 1×10^4 cells per well were seeded in a 96-well plate and cultured for approximately 24 hours before treating the test samples. One hour after the sample treatment, the plate was irradiated with a UV irradiation system (UVA, 365 nm). After UV irradiation, the plate was incubated for 24 hours. The cell viability of the cultured cells was confirmed by measuring the absorbance at 540 nm using the neutral red staining method.

[2] = test system: CD4+IFN-γ+T cell; test: CD4+IFN-γ+T cell density by flow cytometry, EDE mouse model; type: in vivo
Procedure: The cornea, conjunctiva, and each tissue required for analysis were excised with scissors, incised, and shaken with 0.5 mg/mL collagenase type D at 37° C. for 1 hour. After pulverizing the tissue, the resulting mixture was passed through a cell strainer, centrifuged, and resuspended in phosphate-buffered saline containing 1% bovine serum albumin.
In DED, corneal barrier destruction and epithelial cell loss are accompanied by bone marrow and T cell infiltration. Activated T lymphocytes are the primary producers of Th-1 cytokines and interferon (IFN)-γ, which promote cell death at the ocular surface. To evaluate the anti-inflammatory effect of (PEG)-BHD1028 in the EDE mouse model, immune cells that play the role of inflammatory cell surface markers were quantified by flow cytometry with one animal per group.

[3] = test system: inflammatory cells infiltrated into the stromal layer; test: Immune cell counts by H&E staining, EDE rabbit model; type: in vivo; conditions: 10 days after the treatment
Source text: (§1) The extracted eyes were washed with phosphate-buffered saline (PBS), fixed in the modified Davidson's solution, and embedded in paraffin (Histocore Arcadia, Leica, Wetzlar, Germany). Afterwards, paraffin blocks were sliced into sections of a ˜6 μm thickness, mounted on microscope slides (HistoCore AUTOCUT, Leica, Germany), air dried, and stained with hematoxylin-eosin. The stained tissue slides were imaged, and data were obtained using an optical microscope/digital slide scanner (Axio Scan.Z1, Zeiss, Oberkochen, Germany). Image measurement was performed using ZEN (Zeiss, Germany) and ImageJ (NIH, Bethesda, […], USA) software programs.
The DED inflammatory pathway also includes the infiltration of differentiated (antigen-specific) T cells into the cornea, conjunctiva, and lacrimal gland. To evaluate the anti-inflammatory effect of (PEG)-BHD1028 in the EDE rabbit model, the number of inflammatory cells infiltrated into the stromal layer was measured by H&E staining 10 days after the treatment.

[4] = Stability according to pH, HPLC residual amount at 40±2° C.; type: physicochemical; conditions: for Residual amount: 40±2° C.
Procedure: To evaluate the stability of eye drops according to pH, a 10 mM pH buffer [10 mM sodium phosphate buffer+0.02% sodium azide (pH 5.5, pH 6.0, pH 6.5, pH 7.0) or a 10 mM PBS+WELGENE fresh media 10×PBS (pH 7.4)] was mixed with (PEG)-BHD1028 and the resulting mixture was incubated at 40±2° C., and then the stability was evaluated through an HPLC analysis. As a result of the evaluation, there was no significant difference in the residual amount between the formulation prepared at pH 6.5, which was set as the target pH of the eye drops, and the formulation prepared at 7.0, which was the average pH of the eyes, as shown in Table 4 below.

[5] = Osmotic pressure of trehalose-mannitol composite formulations; type: physicochemical; conditions: trehalose-mannitol composite formulation
Procedure: The osmotic pressure of the trehalose-only formulations according to the (PEG)-BHD1028 content (see Table 5) and the osmotic pressure of the trehalose-mannitol composite formulations according to the (PEG)-BHD1028 content (see Table 6) were measured, and reflecting the experimental results, the osmolarity including the 0.5% (PEG)-BHD1028 concentration was adjusted to about 300 mOsm/kg.

[6] = test system: corneal epithelium; test: Corneal epithelial thickness after H&E staining, EDE rabbit model; type: in vivo; conditions: all treatment groups (0.1%, 0.2%, 0.4%), vs vehicle, p<0.001
Source text: as §1
The pathophysiology of dry eye syndrome includes pathological changes in the epithelium such as erosion, cicatrix, scar, corneal neovascularization and, in severe conditions, corneal perforation. The protective effect of (PEG)-BHD1028 on the epithelium was evaluated by measuring the corneal thickness using ZEN (Zeiss, Germany) microscopy software program after H&E tissue staining.

For “NH2-Tyr-Tyr-Phe-Ala-Tyr-His-Pro-Asn-Ile-Pro-Gly-Leu-Tyr-Tyr-Phe-COOH (H-YYFAYHPNIPGLYYF-OH; also: PEGylated, site not given here (mPEG), acetate salt) [(PEG)-BHD1028]”, the “MPE (mean photo effect)” value [1] was 0.003, the “PIF (photo irradiation factor)” value [1] was 1.000 and the “phototoxicity classification by PIF and MPE” value [1] was “non-phototoxic”. The “IC50 UV (+Irr)” value ([1]; BALB/3T3 clone A31 cells, UVA 365 nm irradiation, neutral red) was >1000 µg/mL, the “IC50 UV (−Irr)” value ([1]; BALB/3T3 clone A31 cells, without UV irradiation, neutral red) was >1000 µg/mL and the “CD4+IFN-γ+T cell density” value ([2]; conjunctiva, 0.001%) was 18.96%. For the same substance, the “CD4+IFN-γ+T cell density” value ([2]; conjunctiva, 0.01%) was 15.31%, the “CD4+IFN-γ+T cell density” value ([2]; conjunctiva, 0.1%) was 9.91% and the “CD4+IFN-γ+T cell density” value ([2]; cornea, 0.001%) was 18.62%. For the same substance, the “CD4+IFN-γ+T cell density” value ([2]; cornea, 0.01%) was 16.78%, the “CD4+IFN-γ+T cell density” value ([2]; cornea, 0.1%) was 11.66% and the “CD4+IFN-γ+T cell density” value ([2]; lacrimal gland, 0.001%) was 18.45%. For the same substance, the “CD4+IFN-γ+T cell density” value ([2]; lacrimal gland, 0.01%) was 14.60%, the “CD4+IFN-γ+T cell density” value ([2]; lacrimal gland, 0.1%) was 10.70% and the “immune cell counts in the corneal stroma” value ([3]; 0.1%) was 399.39±22.22. For the same substance, the “number of immune cells infiltrated into the conjunctiva” value (shortened to “number”) ([3]; 0.1%) was 624.94±29.29, the “immune cell counts in the corneal stroma” value ([3]; 0.2%) was 349.89±17.18 and the “number” value ([3]; 0.2%) was 472.41±39.06. For the same substance, the “immune cell counts in the corneal stroma” value ([3]; 0.4%) was 305.06±13.88, the “number” value ([3]; 0.4%) was 427.22±29.29 and the Residual amount ([4]; PBS (pH 7.4), Day 0) was 100.0%. The Residual amount ([4]; PBS (pH 7.4), Day 1) was 97.1%, the Residual amount ([4]; PBS (pH 7.4), Day 3) was 92.3% and the Residual amount ([4]; PBS (pH 7.4), Day 7) was 89.9%. It also gave a Residual amount ([4]; pH 5.5, Day 0) of 100.0%, a Residual amount ([4]; pH 5.5, Day 1) of 98.4% and a Residual amount ([4]; pH 5.5, Day 3) of 97.2%. The Residual amount ([4]; pH 5.5, Day 7) was 96.6%, the Residual amount ([4]; pH 6.0, Day 0) was 100.0% and the Residual amount ([4]; pH 6.0, Day 1) was 99.8%. For the same substance, the Residual amount ([4]; pH 6.0, Day 3) was 99.0%, the Residual amount ([4]; pH 6.0, Day 7) was 98.1% and the Residual amount ([4]; pH 6.5, Day 0) was 100.0%. For the same substance, the Residual amount ([4]; pH 6.5, Day 1) was 99.7%, the Residual amount ([4]; pH 6.5, Day 3) was 98.7% and the Residual amount ([4]; pH 6.5, Day 7) was 97.3%. It also gave a Residual amount ([4]; pH 7.0, Day 0) of 100.0%, a Residual amount ([4]; pH 7.0, Day 1) of 99.2% and a Residual amount ([4]; pH 7.0, Day 3) of 98.7%. For the same substance, the Residual amount ([4]; pH 7.0, Day 7) was 94.9%, the “most stable pH within the pH range of normal tears” value ([4]; pH range 6.5 to 7.6) was 6.5 and the “osmotic pressure, Mean” value ([5]; 0.5%) was 301.00 mOsm/kg. The “osmotic pressure, single measurements #1-#3” value ([5]; 0.5%) was 301 mOsm/kg and 399 mOsm/kg and 303 mOsm/kg, the “osmotic pressure, Mean” value ([5]; 1.5%) was 309.33 mOsm/kg and the “osmotic pressure, single measurements #1-#3” value ([5]; 1.5%) was 309 mOsm/kg and 312 mOsm/kg and 307 mOsm/kg. The “osmotic pressure, Mean” value ([5]; 4.5%) was 338.33 mOsm/kg, the “osmotic pressure, single measurements #1-#3” value ([5]; 4.5%) was 338 mOsm/kg and 339 mOsm/kg and the “mean corneal epithelial thickness” value [6] was “significantly greater than that of the vehicle treated animals”.
